From patent US20260242478A1 (published 2026)
Where no end group is shown, it is not given here.

Key:
[1] = target: T1, PSMA Fab (006 PSMA Fab) (biotinylated (site not stated)); test: phage ELISA: clonal phage on biotinylated PSMA Fab captured on neutravidin plate, anti-M13 HRP detection
T1 construct: Captured as biotinylated PSMA Fab on neutravidin coated plates in the phage ELISA; also called Anti-PSMA Fab; anti-PSMA Fab

[2] = target: T1, PSMA Fab (006 PSMA Fab); test: phage ELISA: clonal phage on biotinylated PSMA Fab captured on neutravidin plate, wells pre-incubated with PSMA antigen as competitor, anti-M13 HRP detection
Procedure: (§1) Clonal phage were harvested as crude supernatants and screened via standard ELISAs. […] Prior to the addition of clonal phage. wells were incubated with blocking buffer and PSMA antigen or blocking buffer alone. Without washing or aspirating, clonal phage supernatants were then added to the wells and incubated for a short time. Wells were then washed followed by detection of bound phage using a horse radish conjugated anti-M13 antibody.

[3] = target: T2, PSMA Fab; test: clonal phage ELISA; biotinylated PSMA Fab on neutravidin plate, wells pre-incubated with PSMA antigen as competitor; anti-M13 HRP detection;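 also: crude clonal phage supernatants added to antigen-treated wells without a wash, incubated briefly, then bound phage read out via horse radish–conjugated anti-M13 antibody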
T2 construct: also called Anti-PSMA Fab; 006 PSMA Fab
Procedure: as §1

[4] = target: T2, PSMA Fab; test: clonal phage ELISA; biotinylated PSMA Fab on neutravidin plate, blocking buffer alone; anti-M13 HRP detection;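 also: crude clonal phage supernatants added without washing to wells pretreated with blocking buffer with or without PSMA antigen, short incubation, then washed before detecting bound phage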
Procedure: as §1

[5] = target: T3, PSMA Fab (006 PSMA Fab) (biotinylated (site not stated)); test: clonal phage ELISA on biotinylated PSMA Fab captured on neutravidin plate, blocking buffer alone; anti-M13 HRP detection
T3 construct: also called Anti-PSMA Fab; anti-PSMA Fab

Row | Binder | Phage binding ELISA signal, Anti-PSMA Fab with PSMA antigen [3] | Phage binding ELISA signal, Anti-PSMA Fab [4] | Phage binding ELISA signal, Anti-PSMA Fab [5] | other results
1 | ESPICKPSWMCSGL [Phage-3718] | – | – | – | Phage binding ELISA signal, Anti-PSMA Fab [1]: 1.42; Phage binding ELISA signal, Anti-PSMA Fab in presence of PSMA [2]: 0.0616
2 | SEALCVPKWMCHGF [Phage-3719] | – | – | – | Phage binding ELISA signal, Anti-PSMA Fab [1]: 1.42; Phage binding ELISA signal, Anti-PSMA Fab in presence of PSMA [2]: 0.0994
3 | EPRACVPFWMCLGF [Phage-3720] | – | – | – | Phage binding ELISA signal, Anti-PSMA Fab [1]: 1.42; Phage binding ELISA signal, Anti-PSMA Fab in presence of PSMA [2]: 0.0796
4 | GENWCVPQWMCDGF [Phage-3721] | – | – | – | Phage binding ELISA signal, Anti-PSMA Fab [1]: 1.41; Phage binding ELISA signal, Anti-PSMA Fab in presence of PSMA [2]: 0.139
5 | AYMKCSPAWMCEGF [Phage-3722] | – | – | – | Phage binding ELISA signal, Anti-PSMA Fab [1]: 1.41; Phage binding ELISA signal, Anti-PSMA Fab in presence of PSMA [2]: 0.0811
6 | PYAVCVPKWMCSGF [Phage-3723] | – | – | – | Phage binding ELISA signal, Anti-PSMA Fab [1]: 1.41; Phage binding ELISA signal, Anti-PSMA Fab in presence of PSMA [2]: 0.0805
7 | EEKLCKPAWMCEWF [Phage-3724] | – | – | – | Phage binding ELISA signal, Anti-PSMA Fab [1]: 1.41; Phage binding ELISA signal, Anti-PSMA Fab in presence of PSMA [2]: 0.096
8 | DVLMCTPRWMCDGF [Phage-3725] | – | – | – | Phage binding ELISA signal, Anti-PSMA Fab [1]: 1.41; Phage binding ELISA signal, Anti-PSMA Fab in presence of PSMA [2]: 0.0822
9 | TLFACVPAWMCDGF [Phage-3726] | – | – | – | Phage binding ELISA signal, Anti-PSMA Fab [1]: 1.41; Phage binding ELISA signal, Anti-PSMA Fab in presence of PSMA [2]: 0.0757
10 | IDRHCVPRWMCDGL [Phage-3727] | – | – | – | Phage binding ELISA signal, Anti-PSMA Fab [1]: 1.41; Phage binding ELISA signal, Anti-PSMA Fab in presence of PSMA [2]: 0.0751
11 | ESRLCVPTWMCTWL [Phage-3728] | – | – | – | Phage binding ELISA signal, Anti-PSMA Fab [1]: 1.41; Phage binding ELISA signal, Anti-PSMA Fab in presence of PSMA [2]: 0.0946
12 | PGKVCEPIWMCLGF (cysteine pairing not given here; also: displayed on phage as pIII fusion) [Phage-3744] | 0.124 | 1.38 | – | –
13 | WIKECVPDWMCSGF [Phage-3745] | 0.0803 | 1.38 | – | –
14 | VMPRCEPIWMCRGF [Phage-3746] | 0.0701 | 1.38 | – | –
15 | MEPVCLPEWMCWGF [Phage-3747] | 0.0902 | 1.38 | – | –
16 | QSVMCRPAWMCEGF [Phage-3748] | 0.0813 | 1.38 | – | –
17 | VPALCVPNWMCSGL [Phage-3749] | 0.0565 | 1.38 | – | –
18 | EQPACVPKWMCIGF [Phage-3750] | 0.0893 | 1.38 | – | –
19 | ETPRCVPWWMCIDI [Phage-3751] | 0.0731 | 1.37 | – | –

Row | Binder | Phage binding ELISA signal, Anti-PSMA Fab with PSMA antigen [3] | Phage binding ELISA signal, Anti-PSMA Fab [4] | Phage binding ELISA signal, Anti-PSMA Fab [5] | other results
20 | NSSLCIPSWMCSGF [Phage-3752] | 0.0738 | 1.37 | – | –
21 | FELYCVPAWMCSGF [Phage-3753] | 0.16 | 1.37 | – | –
22 | EAKVCKPAWMCDGL [Phage-3754] | 0.077 | 1.37 | – | –
23 | EEMMCKPDWMCYGF [Phage-3755] | 0.109 | 1.37 | – | –
24 | YHKECIPPWMCMGF [Phage-3756] | 0.0922 | 1.37 | – | –
25 | TIMYCKPTWMCTGF [Phage-3757] | 0.0727 | 1.37 | – | –
26 | YETVCKPLWMCTGF (peptide, not shown: large carriers, cysteine pairing not given here; also: displayed on phage as pIII fusion, Clonal phage of the peptide-180 library, tested as crude phage supernatant) [Phage-3758] | – | – | 1.36 | –
27 | DVGMCRPKWMCDGF (peptide, not shown: large carriers, Clonal phage of the peptide-180 library, tested as crude phage supernatant) [Phage-3759] | – | – | 1.36 | –
28 | VLPSCIPSWMCNGF (peptide, not shown: large carriers, Clonal phage of the peptide-180 library, tested as crude phage supernatant) [Phage-3760] | – | – | 1.36 | –
29 | EVVACVPEWMCVGF (peptide, not shown: large carriers, Clonal phage of the peptide-180 library, tested as crude phage supernatant) [Phage-3761] | – | – | 1.36 | –
30 | LVHLCKPPWMCHGF (peptide, not shown: large carriers, Clonal phage of the peptide-180 library, tested as crude phage supernatant) [Phage-3762] | – | – | 1.36 | –
31 | DQRECIPHWMCAGF (peptide, not shown: large carriers, cysteine pairing not given here; also: displayed on phage as pIII fusion, Clonal phage of the peptide-180 library, tested as crude phage supernatant) [Phage-3763] | – | – | 1.36 | –
32 | ENRMCIPEWMCQAS (peptide, not shown: large carriers, Clonal phage of the peptide-180 library, tested as crude phage supernatant) [Phage-3764] | – | – | 1.36 | –
33 | MVIECRPEWMCVGF (peptide, not shown: large carriers, Clonal phage of the peptide-180 library, tested as crude phage supernatant) [Phage-3765] | – | – | 1.35 | –
34 | LYGVCVPEWMCHGF (peptide, not shown: large carriers, Clonal phage of the peptide-180 library, tested as crude phage supernatant) [Phage-3766] | – | – | 1.35 | –
35 | VVRVCEPSWMCAGF (peptide, not shown: large carriers, cysteine pairing not given here; also: displayed on phage as pIII fusion, Clonal phage of the peptide-180 library, tested as crude phage supernatant) [Phage-3767] | – | – | 1.35 | –
36 | SEPVCTPMWMCTGI (peptide, not shown: large carriers, Clonal phage of the peptide-180 library, tested as crude phage supernatant) [Phage-3768] | – | – | 1.35 | –
37 | GSPFCVPLWMCEGF (peptide, not shown: large carriers, Clonal phage of the peptide-180 library, tested as crude phage supernatant) [Phage-3769] | – | – | 1.35 | –
38 | TTPMCVPAWMCSGM (peptide, not shown: large carriers, Clonal phage of the peptide-180 library, tested as crude phage supernatant) [Phage-3770] | – | – | 1.34 | –
